Laboratory results taken from publication doi:10.1101/2025.09.10.675349 (bioRxiv, 2025).

Molecular target: the molecule itself
Experiment: SEC

| Protein | binding result |
| --- | --- |
| Staphylococcus aureus serine protease-like protein B (SplB), recombinant, catalytically active (enzyme, UniProt Q2FFT0 37-240, looked up) ENNVTKVKDTNIFPYTGVVAFKSATGFVVGKNTILTNKHVSKNYKVGDRITAHPNSDKGNGGIYSIKKIINYPGKEDVSVIQVEERAIERGPKGFNFNDNVTPFKYAAGAKAGERIKVIGYPHPYKNKYVLYESTGPVMSVEGSSIVYSAHTESGNSGSPVLNSNNELVGIHFASDVKNDDNRNAYGVYFTPEIKKFIAENIDK | binds |
| Catalytically inactive SplB mutant (S193A), recombinant (enzyme, UniProt Q2FFT0 37-240, looked up) ENNVTKVKDTNIFPYTGVVAFKSATGFVVGKNTILTNKHVSKNYKVGDRITAHPNSDKGNGGIYSIKKIINYPGKEDVSVIQVEERAIERGPKGFNFNDNVTPFKYAAGAKAGERIKVIGYPHPYKNKYVLYESTGPVMSVEGSSIVYSAHTESGNAGSPVLNSNNELVGIHFASDVKNDDNRNAYGVYFTPEIKKFIAENIDK | binds |
